Results published in doi:10.1101/840439 (bioRxiv, 2019).

Target: the molecule itself
Experiment: crystal structure

B1: BchL (L-protein of dark-operative protochlorophyllide oxidoreductase, DPOR), wild type (enzyme, Rhodobacter sphaeroides, UniProt Q9RFD6 1-297, looked up)
chain: MSPKDLTIPTGADGEGSVQVHLDEADKITGAKVFAVYGKGGIGKSTTSSNLSAAFSILGKRVLQIGCDPKHDSTFTLTGSLVPTVIDVLKDVDFHPEELRPEDFVFEGFNGVMCVEAGGPPAGTGCGGYVVGQTVKLLKQHHLLDDTDVVIFDVLGDVVCGGFAAPLQHADQAVVVTANDFDSIYAMNRIIAAVQAKSKNYKVRLAGCVANRSRATDEVDRFCKETNFRRLAHMPDLDAIRRSRLKKKTLFEMDEDQDVLAARAEYIRLAESLWRGLDPIDPHSLPDRDIFELLGFD
- stoichiometry N: 2
